The results in this text go back to patent EP1142907A1.

This assay has as its target GAL4-CREBΔLZ fusion protein. Kind of assay: cell-based or functional assay.

“transcriptional coactivator CBP (CREB-binding protein)”: the transactivation of the pG5CAT reporter after caffeine in HEK293 cells is less than 45 fold.
